Assay results from US20150150156, “METHODS AND COMPOSITIONS FOR REDUCING GENE EXPRESSION IN PLANTS” (The Regents of the University of California, published 2015).

T1: SUVR5 zinc finger domain (aa 720-866) (Arabidopsis thaliana, UniProt O64827 SEQ:1-147)
T1 sequence: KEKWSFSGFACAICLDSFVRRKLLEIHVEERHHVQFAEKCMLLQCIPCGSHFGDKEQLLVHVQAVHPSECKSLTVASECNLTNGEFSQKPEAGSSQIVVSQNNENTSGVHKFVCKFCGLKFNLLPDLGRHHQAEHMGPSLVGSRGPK

B1: specific probe (dsDNA)
DNA 1: GTAGAATACTAGTTGATAAC
DNA 2: GTTATCAACTAGTATTCTAC
B2: unspecific probe (dsDNA)
DNA 1: ACCAAGCAACACACCCCGT
DNA 2: ACGGGGTGTGTTGCTTGGT

Assays:
[1] = target: T1, SUVR5 zinc finger domain (aa 720-866); experiment: EMSA; 100, 250, 500 ng protein; 12% glycerol, 20 mM Tris-HCl pH 7.5, 50 mM KCl, 1 mM MgCl2, 1 mM DTT; settings: tags: GST fusion (pDEST15)
[2] = target: T1, SUVR5 zinc finger domain (aa 720-866); experiment: EMSA; specificity control; specificity stated as confirmed by EMSA, gel only in figure; settings: tags: GST fusion (pDEST15)

| Binder | binding result [1] | binding result [2] |
| --- | --- | --- |
| B1 | binds | – |
| B2 | – | no binding |
